Numbered stars: 1 amine (or outer) side, 2 acyl side, 3 side chain; on linkers, the order of the positions; unused ones are H or OH. Square brackets hold non-standard residues; d marks the D form. Side chains are listed from the residue outwards. Ends that are not written are not given here. * marks the point of attachment. C20 diacid = O=C(O)CCCCCCCCCCCCCCCCCCC(=O)*; γGlu = O=C(O)[C@H](CCC(=O)[*:2])N[*:1]; AEEA = NCCOCCOCC(=O)O; Aib = CC(C)(N)C(=O)O
How the values were obtained:
human GIP receptor = target: T1, human GIP receptor (human, UniProt P48546 22-466); assay: cell-based or functional assay
T1 sequence (looked up): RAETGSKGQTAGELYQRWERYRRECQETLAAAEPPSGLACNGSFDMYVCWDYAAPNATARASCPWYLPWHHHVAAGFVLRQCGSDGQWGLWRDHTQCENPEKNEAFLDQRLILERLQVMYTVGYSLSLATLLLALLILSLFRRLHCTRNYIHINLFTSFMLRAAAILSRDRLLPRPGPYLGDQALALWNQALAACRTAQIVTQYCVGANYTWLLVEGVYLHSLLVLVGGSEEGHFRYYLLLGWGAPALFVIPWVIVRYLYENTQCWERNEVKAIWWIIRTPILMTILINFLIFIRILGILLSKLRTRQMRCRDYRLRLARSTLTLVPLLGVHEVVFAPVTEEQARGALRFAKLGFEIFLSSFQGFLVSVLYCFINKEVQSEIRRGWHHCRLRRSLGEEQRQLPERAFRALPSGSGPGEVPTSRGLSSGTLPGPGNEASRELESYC

human GLP-1 receptor = human GLP-1 receptor (human, UniProt P43220 24-463); assay: cell-based or functional assay

B1: Example 32 (peptide)
peptide: Y[Aib]EGTFTSDYSILLDKIAQ[Aib]K([AEEA-AEEA-γGlu-C20 diacid])FIEYLIEGGPSSGAPPPS-NH2
modifications: N-terminus assumed
SMILES: CC[C@H](C)[C@H](NC(=O)[C@H](CCCCN)NC(=O)[C@H](CC(=O)O)NC(=O)[C@H](CC(C)C)NC(=O)[C@H](CC(C)C)NC(=O)[C@@H](NC(=O)[C@H](CO)NC(=O)[C@H](Cc1ccc(O)cc1)NC(=O)[C@H](CC(=O)O)NC(=O)[C@H](CO)NC(=O)[C@@H](NC(=O)[C@H](Cc1ccccc1)NC(=O)[C@@H](NC(=O)CNC(=O)[C@H](CCC(=O)O)NC(=O)C(C)(C)NC(=O)[C@@H](N)Cc1ccc(O)cc1)[C@@H](C)O)[C@@H](C)O)[C@@H](C)CC)C(=O)N[C@@H](C)C(=O)N[C@@H](CCC(N)=O)C(=O)NC(C)(C)C(=O)N[C@@H](CCCCNC(=O)COCCOCCNC(=O)COCCOCCNC(=O)CC[C@H](NC(=O)CCCCCCCCCCCCCCCCCCC(=O)O)C(=O)O)C(=O)N[C@@H](Cc1ccccc1)C(=O)N[C@H](C(=O)N[C@@H](CCC(=O)O)C(=O)N[C@@H](Cc1ccc(O)cc1)C(=O)N[C@@H](CC(C)C)C(=O)N[C@H](C(=O)N[C@@H](CCC(=O)O)C(=O)NCC(=O)NCC(=O)N1CCC[C@H]1C(=O)N[C@@H](CO)C(=O)N[C@@H](CO)C(=O)NCC(=O)N[C@@H](C)C(=O)N1CCC[C@H]1C(=O)N1CCC[C@H]1C(=O)N1CCC[C@H]1C(=O)N[C@@H](CO)C(N)=O)[C@@H](C)CC)[C@@H](C)CC
In the case of B1, the “hGIPR cAMP EC50 ratio” value (human GIP receptor) is reported as 0.84, the “hGIPR cAMP Rel EC50” value (human GIP receptor) is reported as 0.179 nM and the “hGLP1R cAMP EC50 ratio” value (human GLP-1 receptor) is reported as 0.136. The “hGLP1R cAMP Rel EC50” value (human GLP-1 receptor) was 0.498 nM.

B2: Example 37 (peptide)
peptide: Y[Aib]EGTFTSDYSILLDKIAQ[Aib]AFIEYLIK([AEEA-AEEA-γGlu-C20 diacid])GGPSSGAPPPS-NH2
modifications: N-terminus assumed
SMILES: CC[C@H](C)[C@H](NC(=O)[C@H](CCCCN)NC(=O)[C@H](CC(=O)O)NC(=O)[C@H](CC(C)C)NC(=O)[C@H](CC(C)C)NC(=O)[C@@H](NC(=O)[C@H](CO)NC(=O)[C@H](Cc1ccc(O)cc1)NC(=O)[C@H](CC(=O)O)NC(=O)[C@H](CO)NC(=O)[C@@H](NC(=O)[C@H](Cc1ccccc1)NC(=O)[C@@H](NC(=O)CNC(=O)[C@H](CCC(=O)O)NC(=O)C(C)(C)NC(=O)[C@@H](N)Cc1ccc(O)cc1)[C@@H](C)O)[C@@H](C)O)[C@@H](C)CC)C(=O)N[C@@H](C)C(=O)N[C@@H](CCC(N)=O)C(=O)NC(C)(C)C(=O)N[C@@H](C)C(=O)N[C@@H](Cc1ccccc1)C(=O)N[C@H](C(=O)N[C@@H](CCC(=O)O)C(=O)N[C@@H](Cc1ccc(O)cc1)C(=O)N[C@@H](CC(C)C)C(=O)N[C@H](C(=O)N[C@@H](CCCCNC(=O)COCCOCCNC(=O)COCCOCCNC(=O)CC[C@H](NC(=O)CCCCCCCCCCCCCCCCCCC(=O)O)C(=O)O)C(=O)NCC(=O)NCC(=O)N1CCC[C@H]1C(=O)N[C@@H](CO)C(=O)N[C@@H](CO)C(=O)NCC(=O)N[C@@H](C)C(=O)N1CCC[C@H]1C(=O)N1CCC[C@H]1C(=O)N1CCC[C@H]1C(=O)N[C@@H](CO)C(N)=O)[C@@H](C)CC)[C@@H](C)CC
With B2 the “hGIPR cAMP EC50 ratio” value (human GIP receptor) was 0.532, the “hGIPR cAMP Rel EC50” value (human GIP receptor) was 0.269 nM and the “hGLP1R cAMP EC50 ratio” value (human GLP-1 receptor) was 0.0533. For the same binder, the “hGLP1R cAMP Rel EC50” value (human GLP-1 receptor) was 1.15 nM.

B3: Example 36 (peptide)
peptide: Y[Aib]EGTFTSDYSILLDKIAQ[Aib]AFIEYLK([AEEA-AEEA-γGlu-C20 diacid])EGGPSSGAPPPS-NH2
modifications: N-terminus assumed
SMILES: CC[C@H](C)[C@H](NC(=O)[C@H](CCCCN)NC(=O)[C@H](CC(=O)O)NC(=O)[C@H](CC(C)C)NC(=O)[C@H](CC(C)C)NC(=O)[C@@H](NC(=O)[C@H](CO)NC(=O)[C@H](Cc1ccc(O)cc1)NC(=O)[C@H](CC(=O)O)NC(=O)[C@H](CO)NC(=O)[C@@H](NC(=O)[C@H](Cc1ccccc1)NC(=O)[C@@H](NC(=O)CNC(=O)[C@H](CCC(=O)O)NC(=O)C(C)(C)NC(=O)[C@@H](N)Cc1ccc(O)cc1)[C@@H](C)O)[C@@H](C)O)[C@@H](C)CC)C(=O)N[C@@H](C)C(=O)N[C@@H](CCC(N)=O)C(=O)NC(C)(C)C(=O)N[C@@H](C)C(=O)N[C@@H](Cc1ccccc1)C(=O)N[C@H](C(=O)N[C@@H](CCC(=O)O)C(=O)N[C@@H](Cc1ccc(O)cc1)C(=O)N[C@@H](CC(C)C)C(=O)N[C@@H](CCCCNC(=O)COCCOCCNC(=O)COCCOCCNC(=O)CC[C@H](NC(=O)CCCCCCCCCCCCCCCCCCC(=O)O)C(=O)O)C(=O)N[C@@H](CCC(=O)O)C(=O)NCC(=O)NCC(=O)N1CCC[C@H]1C(=O)N[C@@H](CO)C(=O)N[C@@H](CO)C(=O)NCC(=O)N[C@@H](C)C(=O)N1CCC[C@H]1C(=O)N1CCC[C@H]1C(=O)N1CCC[C@H]1C(=O)N[C@@H](CO)C(N)=O)[C@@H](C)CC
In the case of B3, the “hGIPR cAMP EC50 ratio” value (human GIP receptor) is reported as 0.458, the “hGIPR cAMP Rel EC50” value (human GIP receptor) is reported as 0.309 nM and the “hGLP1R cAMP EC50 ratio” value (human GLP-1 receptor) is reported as 0.0268. The “hGLP1R cAMP Rel EC50” value (human GLP-1 receptor) was 2.29 nM.

B4: Example 34 (peptide)
peptide: Y[Aib]EGTFTSDYSILLDKIAQ[Aib]AFIKYLIEGGPSSGAPPPS-NH2
modifications: not fully specified (residue 24)
In the case of B4, the “hGIPR cAMP EC50 ratio” value (human GIP receptor) is reported as 0.393, the “hGIPR cAMP Rel EC50” value (human GIP receptor) is reported as 0.36 nM and the “hGLP1R cAMP EC50 ratio” value (human GLP-1 receptor) is reported as 0.0392. The “hGLP1R cAMP Rel EC50” value (human GLP-1 receptor) was 1.56 nM.

B5: Example 31 (peptide)
peptide: Y[Aib]EGTFTSDYSILLDKIAK([AEEA-AEEA-γGlu-C20 diacid])[Aib]AFIEYLIEGGPSSGAPPPS-NH2
modifications: N-terminus assumed
SMILES: CC[C@H](C)[C@H](NC(=O)[C@H](CCCCN)NC(=O)[C@H](CC(=O)O)NC(=O)[C@H](CC(C)C)NC(=O)[C@H](CC(C)C)NC(=O)[C@@H](NC(=O)[C@H](CO)NC(=O)[C@H](Cc1ccc(O)cc1)NC(=O)[C@H](CC(=O)O)NC(=O)[C@H](CO)NC(=O)[C@@H](NC(=O)[C@H](Cc1ccccc1)NC(=O)[C@@H](NC(=O)CNC(=O)[C@H](CCC(=O)O)NC(=O)C(C)(C)NC(=O)[C@@H](N)Cc1ccc(O)cc1)[C@@H](C)O)[C@@H](C)O)[C@@H](C)CC)C(=O)N[C@@H](C)C(=O)N[C@@H](CCCCNC(=O)COCCOCCNC(=O)COCCOCCNC(=O)CC[C@H](NC(=O)CCCCCCCCCCCCCCCCCCC(=O)O)C(=O)O)C(=O)NC(C)(C)C(=O)N[C@@H](C)C(=O)N[C@@H](Cc1ccccc1)C(=O)N[C@H](C(=O)N[C@@H](CCC(=O)O)C(=O)N[C@@H](Cc1ccc(O)cc1)C(=O)N[C@@H](CC(C)C)C(=O)N[C@H](C(=O)N[C@@H](CCC(=O)O)C(=O)NCC(=O)NCC(=O)N1CCC[C@H]1C(=O)N[C@@H](CO)C(=O)N[C@@H](CO)C(=O)NCC(=O)N[C@@H](C)C(=O)N1CCC[C@H]1C(=O)N1CCC[C@H]1C(=O)N1CCC[C@H]1C(=O)N[C@@H](CO)C(N)=O)[C@@H](C)CC)[C@@H](C)CC
B5 was tested, and the “hGIPR cAMP EC50 ratio” value (human GIP receptor) was 0.456, the “hGIPR cAMP Rel EC50” value (human GIP receptor) was 0.388 nM and the “hGLP1R cAMP EC50 ratio” value (human GLP-1 receptor) was 0.0708. The “hGLP1R cAMP Rel EC50” value (human GLP-1 receptor) was 0.891 nM.

B6: Example 35 (peptide)
peptide: Y[Aib]EGTFTSDYSILLDKIAQ[Aib]AFIEYK([AEEA-AEEA-γGlu-C20 diacid])IEGGPSSGAPPPS-NH2
modifications: N-terminus assumed
SMILES: CC[C@H](C)[C@H](NC(=O)[C@H](CCCCN)NC(=O)[C@H](CC(=O)O)NC(=O)[C@H](CC(C)C)NC(=O)[C@H](CC(C)C)NC(=O)[C@@H](NC(=O)[C@H](CO)NC(=O)[C@H](Cc1ccc(O)cc1)NC(=O)[C@H](CC(=O)O)NC(=O)[C@H](CO)NC(=O)[C@@H](NC(=O)[C@H](Cc1ccccc1)NC(=O)[C@@H](NC(=O)CNC(=O)[C@H](CCC(=O)O)NC(=O)C(C)(C)NC(=O)[C@@H](N)Cc1ccc(O)cc1)[C@@H](C)O)[C@@H](C)O)[C@@H](C)CC)C(=O)N[C@@H](C)C(=O)N[C@@H](CCC(N)=O)C(=O)NC(C)(C)C(=O)N[C@@H](C)C(=O)N[C@@H](Cc1ccccc1)C(=O)N[C@H](C(=O)N[C@@H](CCC(=O)O)C(=O)N[C@@H](Cc1ccc(O)cc1)C(=O)N[C@@H](CCCCNC(=O)COCCOCCNC(=O)COCCOCCNC(=O)CC[C@H](NC(=O)CCCCCCCCCCCCCCCCCCC(=O)O)C(=O)O)C(=O)N[C@H](C(=O)N[C@@H](CCC(=O)O)C(=O)NCC(=O)NCC(=O)N1CCC[C@H]1C(=O)N[C@@H](CO)C(=O)N[C@@H](CO)C(=O)NCC(=O)N[C@@H](C)C(=O)N1CCC[C@H]1C(=O)N1CCC[C@H]1C(=O)N1CCC[C@H]1C(=O)N[C@@H](CO)C(N)=O)[C@@H](C)CC)[C@@H](C)CC
B6 was tested, and the “hGIPR cAMP EC50 ratio” value (human GIP receptor) was 1.58, the “hGIPR cAMP Rel EC50” value (human GIP receptor) was 0.0905 nM and the “hGLP1R cAMP EC50 ratio” value (human GLP-1 receptor) was 0.00728. For the same binder, the “hGLP1R cAMP Rel EC50” value (human GLP-1 receptor) was 8.38 nM.

B7: Example 33 (peptide)
peptide: Y[Aib]EGTFTSDYSILLDKIAQ[Aib]AFK([AEEA-AEEA-γGlu-C20 diacid])EYLIEGGPSSGAPPPS-NH2
With B7 the “hGIPR cAMP EC50 ratio” value (human GIP receptor) was 0.00222, the “hGIPR cAMP Rel EC50” value (human GIP receptor) was 63.3 nM and the “hGLP1R cAMP EC50 ratio” value (human GLP-1 receptor) was 0.000256. For the same binder, the “hGLP1R cAMP Rel EC50” value (human GLP-1 receptor) was 251 nM.
